Here are results for one substance from patent EP2085478A1.

The test concerns the target XKVLQT1 (Xenopus KVLQT1 homologue, 1.6 kb partial clone) (Xenopus) (UniProt P70057). The test can be described thus: cell-based or functional assay.
UniProt P70057, sequence (P70057 other isoform, or with tags, fused parts or gaps): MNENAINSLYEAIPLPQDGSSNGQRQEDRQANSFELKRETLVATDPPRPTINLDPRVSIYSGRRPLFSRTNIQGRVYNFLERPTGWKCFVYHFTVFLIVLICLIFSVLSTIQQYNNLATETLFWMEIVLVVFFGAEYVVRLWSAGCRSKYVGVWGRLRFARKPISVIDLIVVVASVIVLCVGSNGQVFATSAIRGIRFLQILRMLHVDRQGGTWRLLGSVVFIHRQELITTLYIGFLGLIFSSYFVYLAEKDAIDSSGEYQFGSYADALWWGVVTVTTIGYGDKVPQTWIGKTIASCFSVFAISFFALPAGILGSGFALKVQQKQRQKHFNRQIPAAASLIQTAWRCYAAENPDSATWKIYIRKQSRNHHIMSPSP

The substance human minK (from UniProt P15382 1-129) came in with an IsK at +40 mV, oocytes injected with 60 pg hminK cRNA of 2.11 µA; an IsK at +40 mV, oocytes injected with 1 ng hminK cRNA of 2.2 µA; a V½ of the normalized isochronal activation curve, oocytes injected with hminK of 2.4 mV.
